From paper doi:10.1101/2023.05.22.541748

Assays:
[1] = target: Ubc13 (UniProt P61088); test: NMR titration
[2] = target: Ubc13 C87K/K92T/K94Q (UniProt P61088); test: NMR
Ubc13 C87K/K92T/K94Q, sequence (P61088 whole entry C87K/K92T/K94Q): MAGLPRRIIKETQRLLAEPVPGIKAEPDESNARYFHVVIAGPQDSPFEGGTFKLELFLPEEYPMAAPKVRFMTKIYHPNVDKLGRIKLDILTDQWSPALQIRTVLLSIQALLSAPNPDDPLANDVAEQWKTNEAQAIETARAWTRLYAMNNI

Ubc13, sequence (P61088 whole entry): as the sequence (P61088 whole entry C87K/K92T/K94Q) above, with K87C, T92K, Q94K counted along it

| Kd [1] [µM] | population of the closed state of the conjugate [2] [%] | population of the closed state of the conjugate with RNF38 RING [2] [%] | Substance |
| --- | --- | --- | --- |
| 55 |  |  | RNF38 RING domain (residues 387-465) (domain or fragment) |
|  | 60 | 80 | ubiquitin (wild type, Q40Ub) (from UniProt P0CG48 1-76) (natural protein) |
